This is an account of results in article PMC10148413 (2023).

As usually defined, the Kd is the equilibrium constant for the complex coming apart.

For one experiment, the target named is histone H3 (unmodified) (Drosophila melanogaster, UniProt P02299).
Experiment [1] deals with histone H3 (K4 trimethylated) (Drosophila melanogaster, UniProt P02299).

B1: Caf1 (protein)
chain: MVDRSDNAAESFDDAVEERVINEEYKIWKKNTPFLYDLVMTHALEWPSLTAQWLPDVTKQDGKDYSVHRLILGTHTSDEQNHLLIASVQLPSEDAQFDGSHYDNEKGEFGGFGSVCGKIEIEIKINHEGEVNRARYMPQNACVIATKTPSSDVLVFDYTKHPSKPEPSGECQPDLRLRGHQKEGYGLSWNPNLNGYLLSASDDHTICLWDINATPKEHRVIDAKNIFTGHTAVVEDVAWHLLHESLFGSVADDQKLMIWDTRNNNTSKPSHTVDAHTAEVNCLSFNPYSEFILATGSADKTVALWDLRNLKLKLHSFESHKDEIFQVQWSPHNETILASSGTDRRLHVWDLSKIGEEQSTEDAEDGPPELLFIHGGHTAKISDFSWNPNEPWIICSVSEDNIMQVWQMAENVYNDEEPEIPASELETNTA
Molecule B1 had a Kd with histone H3 (unmodified) of about 600 nM.

B2: Caf1 (protein)
chain: MVDRSDNAAESFDDAVEERVINEEYKIWKKNTPFLYDLVMTHALEWPSLTAQWLPDVTKQDGKDYSVHRLILGTHTSDEQNHLLIASVQLPSEDAQFDGSHYDNEKGEFGGFGSVCGKIEIEIKINHEGEVNRARYMPQNACVIATKTPSSDVLVFDYTKHPSKPEPSGECQPDLRLRGHQKEGYGLSWNPNLNGYLLSASDDHTICLWDINATPKEHRVIDAKNIFTGHTAVVEDVAWHLLHESLFGSVADDQKLMIWDTRNNNTSKPSHTVDAHTAEVNCLSFNPYSEFILATGSADKTVALWDLRNLKLKLHSFESHKDEIFQVQWSPHNETILASSGTDRRLHVWDLSKIGEEQSTEDAEDGPPELLFIHGGHTAKISDFSWNPNEPWIICSVSEDNIMQVWQMAENVYNDEEPEIPASELETNTA
modifications: H3K4me3
The molecule B2 registered a Kd in experiment [1] of over 70000 nM.
